Reference: article PMC10981699, “Caldomycin, a new guanidopolyamine produced by a novel agmatine homocoupling enzyme involved in homospermidine biosynthesis” (Scientific Reports, 2024)

Key:
[1] = substrate: N=C(N)NCCCCN; assay: homospermidine formation by HPLC, coupled with TtSpeBap; assay type: biochemical, Thermus thermophilus; conditions: 50 mM Tris-HCl pH 8.5, 1 mM NAD+, 10 µM MnCl2, 65 °C, TtSpeBap as coupling enzyme, agmatine is both donor and acceptor
[2] = substrate: N=C(N)NCCCCNCCCCNC(=N)N; assay: urea release, Quantichrome urea assay; assay type: biochemical, Thermus thermophilus; conditions: assay as in ref. 26
From the text: urea release, Quantichrome urea assay on TtSpeBap (aminopropylagmatine ureohydrolase)

B1: CdmS (caldomycin synthase) (Thermus thermophilus HB8; V6M) (protein)
chain: MQKKELLSTPVVPIDIKAFDAGPILEAMGKTAFQARNLHRAAEIYLRMLEDDCAVILTLAGSLVSAGQGLIVHDLIRKGLVDVIVATGANIVDQDFFEALGHRHYQGDPRADDEALRRLWIDRIYDTYIDEEELRHTDYTVAEIADGLEPRPYSSREFIWHMGRYLAERGLGEKSIVRAAYEEGVPIFVPAFSDSSAGFGLVYHQVKRPEAHVTIDSVADFRELTEIKLKAGTTGLVMLGGGVPKNFAQDIVVAAEVLGHRVEMHKYAIQITVADERDGGLSGSTLSEAQSWGKVDARLSQMVFAEATLAFPLLASYVWHRAPARAKRRYAELFREKAPA
notes: full-length gene in pET21b (NdeI/EcoRI), E. coli BL21(DE3) pLysS; no tag stated; heat treatment and Butyl column; 38 kDa on SDS-PAGE
In the case of B1, the Km [1] is reported as 95 ± 6 µM.

B2: TtSpeBap (aminopropylagmatine ureohydrolase) (Thermus thermophilus HB8) (protein)
chain: MRLVFGEKDTPYEEARVVVLPVPYDLSLSFLPGARRGPEAILLASRELEPFLLELGAAPEEVGIHAAEPVPWVAGMAEESHRLIREEALRHLRAGKWVVALGGDHSVTHPLVQAHREALGDFSLLHVDAHADLYPEWQGSVYSHASPFYRLLTEGFPLVQVGIRAMDRDSLRLARKKGVALFPAHRIHREGLPLDEILRALGKRVYISLDFDALDPSLMPSVGTPLPGGLSYRQVVDLLEAVFREKEVVGMDFVELSPNGQFHAEMTAAQLVYHAIGLKGLQAGWLSREVDHI
With B2 the Km [2] was 3840 ± 840 µM, the Vmax [2] was 2920 µmol/min/mg and the kcat [2] was 1580 ± 230 s⁻¹. The kcat/Km [2] was 419000 ± 32000 M⁻¹ s⁻¹.
